Test results published in PMC11046469, “Leveraging a Phage-Encoded Noncanonical Amino Acid: A Novel Pathway to Potent and Selective Epigenetic Reader Protein Inhibitors” (ACS Central Science, 2024).

Target: T1, ENL YEATS domain (AviSUMO-ENL YEATS) (Homo sapiens, UniProt Q03111)
T1 construct: encoding ENL YEATS (aa 1−148) was cloned in pET28a-; made in house; host or cells: E. coli BL21(DE3pLysS), co-expressed with BirA (pBirAcm)
T1 sequence (Q03111 1-148): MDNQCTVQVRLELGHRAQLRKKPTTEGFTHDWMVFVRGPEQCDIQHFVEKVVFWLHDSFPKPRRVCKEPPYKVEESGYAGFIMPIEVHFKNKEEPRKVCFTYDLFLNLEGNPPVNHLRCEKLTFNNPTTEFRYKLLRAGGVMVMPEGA
Assay: Phage panning of BuK-containing 7-mer library against AviSUMO-ENL YEATS with Illumina NGS abundance
Conditions: sheet ENLR3: round 3 of panning against ENL YEATS; TAG = amber codon (BuK); 7-mer library positions V1-V7
Description: We utilized a previously established amber-obligate 7-mer phage display library to develop a phage display library enriched with BuK-containing 7-mer peptides. For detailed characterizations, including analysis of amber codon percentages, NNK trinucleotide analysis, and amino acid distribution at each position within the library, please refer to the work of Tharp et al.[10] Furthermore, the comprehensive raw NGS data for the amber-obligate 7-mer phage library can be found in the NCBI’s Sequence Read Archive, under the accession ID PRJNA606283. To produce the BuK-containing 7-mer phage library, the phages were produced in the presence of 5 mM BuK using TOP10 cells harboring the following three plasmids: (1) pADL-gIII, which contains the 7-mer amber-obligate peptide-coding DNA library positioned at the N-terminus of M13 pIII gene; (2) pCDF-BuKRS, which encodes BuKRS and its cognate tRNA^Pyl for the genetic incorporation of BuK at amber codons in the 7-mer library; and (3) M13KO7TAA, a helper phage plasmid engineered to have a TAA mutation at pIII so that its lack of a functional pIII allows an efficient multivalent display of the 7-mer library. The ENL YEATS domain containing an N-terminal AviSUMO-Tag was recombinantly expressed in E. coli together with BirA, a biotin ligase, for site-specific biotinylation at the AviTag. The biotinylated AviSUMO-ENL YEATS was immobilized on streptavidin-coated magnetic beads for panning with the BuK-containing phages. […] Phage libraries collected from the first and third rounds of selection were sequenced using Illumina next generation sequencing (NGS) and all sequenced data are available through the NCBI SRA database (Project PRJNA1041845). To prevent possible sequencing errors from affecting conclusions, sequences were filtered using previously published paired-end processing,[10] where any sequences containing more than one mismatch in the nonlibrary region or any mismatch in the library region were discarded. The NGS data provided DNA sequences encompassing both the library and nonlibrary regions. In our analysis, we included data from the nonlibrary region as a stringent quality control measure to filter out low-quality data. For our analysis, we utilized 51 nucleotides from the NGS output, with 21 nucleotides encoding the library region and an additional 30 nucleotides for the nonlibrary region. […] Among all the sequences, only 85 of them contained more than 100 copies (blue area), while the remaining sequences all had low abundances (<10^2 copies, dark and light gray areas), which constituted 85.2% of the first round population. After three panning rounds, the selection converged to two highly enriched sequences: YDVYCYX (ENL-S1) and WWIIEXG (ENL-S2, X denotes BuK). Out of 551 different unique sequences collected from the third round, ENL-S1 and ENL-S2 represented 85% of the entire library (Figure 2A and Figures S6–S8). Both peptide sequences corresponded to their own unique DNA sequence, rather than there being varying codons encoding the same amino acids (Figure S7). […] Two motifs were found in the majority of sequences with high abundance (greater than 0.1%) (Figure S6). A Y(C/L)Y pattern was identified in the residues adjacent to BuK in four of the eight top sequences. Also, an H(L/Y)(T/V)LFXG (X denotes BuK) motif was observed, albeit at lower abundances, in two of the top sequences. In the initial round of selection, we observed that only a small percentage of phages were eluted, which aligns with typical outcomes in phage selection experiments since only a low copy number of phages can bind to the target.[10],[45] With each successive round of selection, we noted a gradual increase in the percentage of phages eluted. This incremental, rather than sharp, increase was attributed to the intensification of selection pressures, such as the application of more stringent washing protocols. We aimed for the incremental increase to retain potent clones with low copy numbers from the previous selection cycle. […]

Substance | n (number of NGS reads of the unique amino acid sequence) | percent (share of sequence reads) [%]
LNAEFTAGA | 1 | 0.0009106
LTAGTVLDP | 1 | 0.0009106
LTCYCYTAG | 39 | 0.03551
LWIFTPTAG | 4 | 0.003642
LYGSTAGDC | 1 | 0.0009106
MFTAGITDN | 1 | 0.0009106
MTAGGLRHS | 1 | 0.0009106
QCCPRTAGD | 10 | 0.009106
QCGLRTAGD | 4 | 0.003642
QCGPLTAGD | 10 | 0.009106
QCGPQTAGD | 2 | 0.001821
QCGPRTAGD | 9049 | 8.24
QCGPRTAGY | 10 | 0.009106
QCGTRTAGD | 13 | 0.01184
QYGPRTAGD | 2 | 0.001821
SLMMCQTAG | 2 | 0.001821
SMHACTAGT | 2 | 0.001821

Continued, values first:

n (number of NGS reads of the unique amino acid sequence) | percent (share of sequence reads) [%] | Substance
1 | 0.0009106 | LFIALPTAG
1 | 0.0009106 | LLAFLWL
1 | 0.0009106 | LLIIETAGG
1 | 0.0009106 | LLWTAGLAS
1 | 0.0009106 | LTAGMPRSF
1 | 0.0009106 | LTAGSSASG
26 | 0.02368 | LWIIETAGG
1 | 0.0009106 | NAIYCYTAG
1 | 0.0009106 | NCPTAGFNL
3 | 0.002732 | QCGPRTAGN
11 | 0.01002 | QCGPRYD
4 | 0.003642 | QCGPWTAGD
10 | 0.009106 | QCGQRTAGD
3 | 0.002732 | QCGSRTAGD
5 | 0.004553 | QCVPRTAGD
6 | 0.005464 | QFGPRTAGD
2 | 0.001821 | QRGPRTAGD
142 | 0.1293 | RTVYCYTAG
7 | 0.006374 | RWIIETAGG
10 | 0.009106 | SCPPRTAGD
2 | 0.001821 | SCVVFTAGI
2 | 0.001821 | SQCTAGECA

Same assay, conditions: sheet ENLR3: round 3 of selection against ENL YEATS; TAG = amber codon (BuK)

Substance | n (number of NGS reads of the 7-mer sequence V1-V7) | percent (share of NGS reads of the 7-mer sequence V1-V7) [%]
NLTLFTAGG | 1 | 0.0009106
NTAGNIGLY | 1 | 0.0009106
NYVLFTAGG | 1 | 0.0009106
QCAPRTAGD | 1 | 0.0009106
QCDPRTAGD | 1 | 0.0009106
QCGPPTAGD | 1 | 0.0009106
QCGPRQD | 1 | 0.0009106
QCGPRTAGV | 1 | 0.0009106
QCGPRWD | 1 | 0.0009106
QCGPWTAGG | 1 | 0.0009106
QCSPRTAGD | 1 | 0.0009106
QTAGERNAC | 1 | 0.0009106
RTAGTESQL | 1 | 0.0009106
RTVYCHTAG | 1 | 0.0009106
SLYITFTAG | 1 | 0.0009106
SMMTAGSST | 1 | 0.0009106
SSGTAGKCV | 1 | 0.0009106
STAGTEIYC | 1 | 0.0009106

Continued, values first:

n (number of NGS reads of the 7-mer sequence V1-V7) | percent (share of NGS reads of the 7-mer sequence V1-V7) [%] | Substance
1 | 0.0009106 | NTITAGISL
1 | 0.0009106 | QCGPRTAGE
1 | 0.0009106 | QCGPRTAGG
1 | 0.0009106 | QWGPRTAGD
1 | 0.0009106 | RCGPRTAGD
1 | 0.0009106 | RLTLFTAGG
1 | 0.0009106 | RWVAGPTAG
1 | 0.0009106 | SAVVATAGG
1 | 0.0009106 | SGVGFTAGS
1 | 0.0009106 | SLERTAGGF
